B1: 1C4-zu1-hIgG1 DD (antibody)
heavy: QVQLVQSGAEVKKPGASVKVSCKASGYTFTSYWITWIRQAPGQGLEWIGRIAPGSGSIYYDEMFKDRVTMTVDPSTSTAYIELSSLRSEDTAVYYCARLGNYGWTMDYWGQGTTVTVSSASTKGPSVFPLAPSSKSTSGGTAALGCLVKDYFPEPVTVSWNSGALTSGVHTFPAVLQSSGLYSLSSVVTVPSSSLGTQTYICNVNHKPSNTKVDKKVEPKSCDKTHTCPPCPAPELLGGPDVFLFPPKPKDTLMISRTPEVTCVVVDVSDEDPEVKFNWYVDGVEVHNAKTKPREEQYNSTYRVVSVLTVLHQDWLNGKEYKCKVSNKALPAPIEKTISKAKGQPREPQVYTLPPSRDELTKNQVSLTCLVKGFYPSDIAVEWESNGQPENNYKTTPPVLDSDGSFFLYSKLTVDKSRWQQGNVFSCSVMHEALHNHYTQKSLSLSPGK
light: DIVMTQSPKSLAVSLGERATINCKASQSVTNNVAWYQQKPGQPPKLLIYYVSNRYTGVPDRFSGSGYGTDFTLTISSLQAEDVAVYFCQQDYSSWTFGGGTKVEIKRTVAAPSVFIFPPSDEQLKSGTASVVCLLNNFYPREAKVQWKVDNALQSGNSQESVTEQDSKDSTYSLSSTLTLSKADYEKHKVYACEVTHQGLSSPVTKSFNRGEC
notes: Fc mutant of 1C4-zu1-hIgG1 with S239D/H268D (EU numbering)
B2: 1B5-zu1-hIgG1 (antibody)
heavy: not shown
light: EIVLTQSPATLSLSPGERATLTCRASSSVSSSYLLWYQQKSGAAPRLWIYSTSNLASGVPARFSGSGSGTDFTLTISSLEPEDFATYYCQQYSGYPLTFGQGTKLEIKRTVAAPSVFIFPPSDEQLKSGTASVVCLLNNFYPREAKVQWKVDNALQSGNSQESVTEQDSKDSTYSLSSTLTLSKADYEKHKVYACEVTHQGLSSPVTKSFNRGEC
notes: Humanized form of B1-1B5-H1L1; human IgG1 / kappa
B3: 1B5-zu1-hIgG1 DD (antibody)
heavy: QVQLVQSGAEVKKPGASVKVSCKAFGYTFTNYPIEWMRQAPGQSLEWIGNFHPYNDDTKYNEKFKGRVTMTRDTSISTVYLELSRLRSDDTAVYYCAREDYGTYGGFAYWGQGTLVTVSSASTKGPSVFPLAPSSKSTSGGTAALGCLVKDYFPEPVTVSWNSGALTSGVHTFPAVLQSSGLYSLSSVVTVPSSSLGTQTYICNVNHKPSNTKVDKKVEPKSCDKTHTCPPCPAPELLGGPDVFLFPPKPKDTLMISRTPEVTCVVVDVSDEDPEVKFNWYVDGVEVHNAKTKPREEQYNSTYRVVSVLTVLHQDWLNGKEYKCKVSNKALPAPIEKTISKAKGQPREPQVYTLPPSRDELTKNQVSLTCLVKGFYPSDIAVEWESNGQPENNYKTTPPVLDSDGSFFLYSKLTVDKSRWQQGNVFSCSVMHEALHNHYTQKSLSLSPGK
light: B2 light
notes: Fc mutant of 1B5-zu1-hIgG1 with S239D/H268D (EU numbering)
B4: 1C4-zu1-hIgG1 (antibody)
heavy: not shown
light: B1 light
notes: Humanized form of B1-1C4-H1L1; human IgG1 / kappa
B5: B1-1B5-H1L1 (antibody, human IgG1, kappa, V domains shown)
VH: EVQLQQSGAELVKPGASVKMSCKAFGYTFTNYPIEWMKQSHGKSLEWIGNFHPYNDDTKYNEKFKGKAKLTVEKSSSTVYLELSRLTSDDSAVYYCAREDYGTYGGFAYWGQGTLVTVSS
VL: EITVTQSPAIMSASPGEKVTMTCRASSSVSSSYLLWYQQKSGASPKLWIYSTSNLASGVPARFSGSGSGTSYSLTISSVEAEDAATYYCQQYSGYPLTFGAGTKLELKR
B6: B1-1C4-H1L1 (antibody, human IgG1, kappa, V domains shown)
VH: EVQLQQSGDDLVKPGASVKLSCKASGYTFTSYWITWIKQRPGQGLEWIGRIAPGSGSIYYDEMFKDKATLTVDPSSSTAYIQLSSLSSEDSAVYFCARLGNYGWTMDYWGQGTSVTVSS
VL: DIVMTQTPKFLLVSAGDRVTITCKASQSVTNNVAWYQQAPGQSPKLLIYYVSNRYTGVPDRFAGSGYGTDFTFTISTVQAEDLAVYFCQQDYSSWTFGGGTKLEIKR

Results on 6 molecules are retold here after EP4793286A1 (Shanghai Scizeng Medical Technology Co., Ltd., dated 2026).

T1 sequence (P08637 17-208 F176V): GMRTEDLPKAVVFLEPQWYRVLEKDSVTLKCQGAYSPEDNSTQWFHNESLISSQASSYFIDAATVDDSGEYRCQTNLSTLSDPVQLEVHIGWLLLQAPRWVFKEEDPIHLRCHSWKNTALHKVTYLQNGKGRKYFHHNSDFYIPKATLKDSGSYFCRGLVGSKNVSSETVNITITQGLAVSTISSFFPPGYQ

One test addresses T1, hCD16A(158V)-ECD-C-his (human, UniProt P08637 17-208).
T1 construct: extracellular domain; Homemade; not shown: C-terminal His tag
Nature of the test: SPR; ratio against 1C4-zu1-hIgG1; end of the range assigned by Table 10. In general terms: Surface plasmon resonance follows binding to a sensor surface in real time, without labels.
Regarding B1, the “fold higher affinity than the antibody without DD” value is 3 to 4 fold.

Another test has as its target T2, hCD32B (ECD, His tag, Sino Biological, 10259-H08C) (human, UniProt P31994 43-217).
T2 construct: extracellular domain; Bought protein; not shown: His tag
T2 sequence (looked up): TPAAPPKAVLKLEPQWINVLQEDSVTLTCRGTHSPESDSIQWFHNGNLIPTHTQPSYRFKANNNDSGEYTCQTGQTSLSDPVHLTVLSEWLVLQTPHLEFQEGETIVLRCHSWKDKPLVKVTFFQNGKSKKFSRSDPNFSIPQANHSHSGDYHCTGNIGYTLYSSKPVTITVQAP
The test can be described thus: SPR (Biacore 8K), His-tagged Fc receptor captured by anti-His antibody on CM5 chip, antibody flowed as analyte.
One may read the Kd as the equilibrium constant for the complex coming apart. For B2, binding was put at a Kd of 13400 nM.

Take B3: the Kd was found to be 1530 nM.

As for B4, binding was put at a Kd of 10000 nM.

B1: the Kd stood at 1680 nM.

Another test concerns the target T1, hCD16A(158V)-ECD-C-his. The description is as above.
By koff is commonly meant a measure of how fast the partners let go of each other. Read a low koff as a long-lived complex. As usually defined, the kon is a measure of how fast the partners come together. A low value points to slow association. For B2, the Kd was 83 nM, the koff was determined as 0.00798 s⁻¹ and the kon is 96100 M⁻¹ s⁻¹.

In turn, B3 registered a Kd of 21.5 nM, an off-rate constant (koff) of 0.0103 s⁻¹ and an on-rate constant (kon) of 481000 M⁻¹ s⁻¹.

Turning to B4, the Kd was 80.2 nM, the koff was 0.00775 s⁻¹ and the kon came out at 96600 M⁻¹ s⁻¹.

B1 yielded a Kd of 25.4 nM, a koff of 0.0113 s⁻¹ and a kon of 445000 M⁻¹ s⁻¹.

The target in another test is T3, cPD-1 ECD-Avi-His (Macaca fascicularis, UniProt Q15116 25-170 (human entry)).
T3 construct: tied to the construct by its name only; not shown: Avi tag and His tag
T3 chain: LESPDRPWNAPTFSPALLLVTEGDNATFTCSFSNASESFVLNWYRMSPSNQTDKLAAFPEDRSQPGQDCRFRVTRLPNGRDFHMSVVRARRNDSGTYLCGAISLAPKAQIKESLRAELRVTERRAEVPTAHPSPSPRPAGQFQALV
The test can be described thus: SPR (Biacore 8K), antibody captured on Protein A chip, antigen flowed as analyte.
For B2, the Kd came out at 38.5 nM, the koff came to 0.00841 s⁻¹ and the kon was determined as 219000 M⁻¹ s⁻¹.

As for B3, the affinity, expressed as Kd, was 35.1 nM; the koff was determined as 0.00856 s⁻¹; the kon is 243000 M⁻¹ s⁻¹.

In turn, B4 registered a Kd of 15.6 nM, a koff of 0.00392 s⁻¹ and a kon of 251000 M⁻¹ s⁻¹.

In turn, B1 showed a Kd of 15.2 nM, a koff of 0.00393 s⁻¹ and a kon of 259000 M⁻¹ s⁻¹.

In a further test the target is T4, PD1 on Jurkat-PD1-NFAT reporter cells (UniProt Q15116 25-288, limits assumed). Nature of the test: cell-based or functional assay.
T4 sequence (Q15116 25-288 limits assumed): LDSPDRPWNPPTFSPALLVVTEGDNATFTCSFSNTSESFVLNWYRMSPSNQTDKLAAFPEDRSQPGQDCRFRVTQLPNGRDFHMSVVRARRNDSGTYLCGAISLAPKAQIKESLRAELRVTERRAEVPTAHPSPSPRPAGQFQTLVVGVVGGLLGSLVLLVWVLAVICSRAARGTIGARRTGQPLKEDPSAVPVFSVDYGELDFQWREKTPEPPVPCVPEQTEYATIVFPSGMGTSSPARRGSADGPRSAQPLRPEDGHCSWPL
Consider B2, for which the “EC50 of inhibition of Jurkat-PD1-NFAT reporter cell activation” value was 0.13 nM.

On to B3, for which the “EC50 of inhibition of Jurkat-PD1-NFAT reporter cell activation” value was determined as 0.15 nM.

B4: the “EC50 of inhibition of Jurkat-PD1-NFAT reporter cell activation” value is 0.12 nM.

For B1, the “EC50 of inhibition of Jurkat-PD1-NFAT reporter cell activation” value stood at 0.16 nM.

For the next test, the target named is T5, hCD16A(158F)-ECD-C-his (human, UniProt P08637 17-208).
T5 construct: extracellular domain; Homemade; not shown: C-terminal His tag
T5 sequence (P08637 17-208): as the sequence (P08637 17-208 F176V) above, with V160F counted along it
The test can be described thus: SPR; ratio against 1B5-zu1-hIgG1; end of the range assigned by Table 9.
On to B3, for which the “fold higher affinity than the antibody without DD” value was 3 to 6 fold.

The next test deals with T6, hPD-1 ECD-Avi-His (human, UniProt Q15116 25-170).
T6 construct: tied to the construct by its name only; not shown: Avi tag and His tag
T6 sequence (Q15116 25-170): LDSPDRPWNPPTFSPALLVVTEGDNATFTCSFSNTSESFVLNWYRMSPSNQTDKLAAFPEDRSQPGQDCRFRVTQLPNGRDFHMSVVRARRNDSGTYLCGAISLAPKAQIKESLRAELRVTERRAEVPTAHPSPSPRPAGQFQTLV
The test can be described thus: SPR (Biacore 8K), antibody captured on Protein A chip, antigen flowed as analyte.
Consider B2, for which the affinity, expressed as Kd, was 11.8 nM; the koff came out at 0.0024 s⁻¹; the kon is 204000 M⁻¹ s⁻¹.

B3 gave a Kd of 11.1 nM, a koff of 0.00231 s⁻¹ and a kon of 209000 M⁻¹ s⁻¹.

In the case of B4, the dissociation constant Kd is 8.26 nM, the off-rate (koff) came out at 0.00195 s⁻¹ and the kon was 236000 M⁻¹ s⁻¹.

For the molecule B1, binding was characterised by a dissociation constant (Kd) of 8.05 nM, the koff worked out at 0.00194 s⁻¹ and the kon came out at 240000 M⁻¹ s⁻¹.

For a further test, the target named is T7, hPD-1 on CHOS-hPD-1 cells (Homo sapiens, UniProt Q15116 25-288). Nature of the test: flow cytometry on CHOS-hPD-1 cells, MFI, 4-parameter fit.
T7 sequence (Q15116 25-288 limits assumed): as the sequence (Q15116 25-288 limits assumed) above
The EC50 is the concentration needed to bring the measured effect to its halfway point. A high value points to a need for much substance. B2: the EC50 is 11.9 nM. This counts as double-digit nanomolar.

B3: a half-maximal response (EC50) required 12.1 nM.

As to B4, the EC50 amounted to 14.3 nM.

B1 yielded an EC50 of 13.7 nM.

A further test has as its target T4, PD1 on Jurkat-PD1-NFAT reporter cells. The test can be described thus: cell-based or functional assay. The source holds these as a separate data set.
On to B5, for which the “EC50 of inhibition of Jurkat-PD1-NFAT reporter cell activation” value was found to be 0.12 nM.

Take B6: the “EC50 of inhibition of Jurkat-PD1-NFAT reporter cell activation” value worked out at 0.14 nM.

Another test concerns the target T7, hPD-1 on CHOS-hPD-1 cells. Nature of the test: cell-based or functional assay.
On to B2, for which the “EC50 of ADCC (LDH release, human NK cells, target cells CHOS-hPD-1)” value (“EC50 of ADCC” below) is 0.00512 nM.

Consider B3, for which the “EC50 of ADCC” value is 0.00044 nM.

For B4, the “EC50 of ADCC” value is 0.0019 nM.

Turning to B1, the “EC50 of ADCC” value came to 0.00033 nM.

For a further test, the target named is T8, hCD32A (167 His, His Tag, Sino Biological, 10374-H08C1) (human, UniProt P12318 34-218).
T8 construct: Bought protein; not shown: His tag
T8 sequence (looked up): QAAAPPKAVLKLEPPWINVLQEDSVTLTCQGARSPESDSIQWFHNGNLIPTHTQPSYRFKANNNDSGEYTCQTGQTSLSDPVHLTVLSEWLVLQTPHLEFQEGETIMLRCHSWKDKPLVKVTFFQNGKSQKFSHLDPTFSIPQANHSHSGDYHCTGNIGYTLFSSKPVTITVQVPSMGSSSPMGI
Nature of the test: SPR; ratio against 1C4-zu1-hIgG1; end of the range assigned by Table 7.
As to B1, the “fold higher affinity than the antibody without DD” value lay within 3 to 4 fold.

In a further test the target is T5, hCD16A(158F)-ECD-C-his. Nature of the test: SPR (Biacore 8K), His-tagged Fc receptor captured by anti-His antibody on CM5 chip, antibody flowed as analyte.
With B2, the affinity, expressed as Kd, was 326 nM; the koff turned out to be 0.03 s⁻¹; the kon is 92100 M⁻¹ s⁻¹.

Take B3: binding was put at a Kd of 51.8 nM, the koff amounted to 0.0354 s⁻¹ and the kon came to 684000 M⁻¹ s⁻¹.

Turning to B4, the Kd stood at 222 nM, the koff stood at 0.0248 s⁻¹ and the kon was found to be 112000 M⁻¹ s⁻¹.

With B1, the affinity, expressed as Kd, was 62.7 nM; the koff is 0.0423 s⁻¹; the kon came out at 674000 M⁻¹ s⁻¹.

For a further test, the target named is T9, cPD-1 on CHOS-cPD-1 cells (Macaca fascicularis, UniProt Q15116 25-288 (human entry)).
T9 chain: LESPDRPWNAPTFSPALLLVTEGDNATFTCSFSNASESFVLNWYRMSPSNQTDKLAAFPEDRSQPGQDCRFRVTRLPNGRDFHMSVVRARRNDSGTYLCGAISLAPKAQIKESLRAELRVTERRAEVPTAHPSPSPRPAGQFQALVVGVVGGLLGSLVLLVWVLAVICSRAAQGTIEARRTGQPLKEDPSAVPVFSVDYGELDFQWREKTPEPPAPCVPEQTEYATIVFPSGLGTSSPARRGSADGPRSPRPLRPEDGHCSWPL
Nature of the test: flow cytometry on CHOS-cPD-1 cells, MFI, 4-parameter fit. (In general: Flow cytometry measures light scatter and fluorescence of single cells or particles in a stream.)
Turning to B2, a half-maximal response (EC50) required 20.2 nM.

As for B3, the midpoint of the response, the EC50, lay at 19.9 nM. The EC50 values of the last two molecules are within 1.5-fold of each other.

Turning to B4, a half-maximal effect (EC50) was put at 20.3 nM.

B1 had an EC50 of 20.1 nM.

The target of a further test is T5, hCD16A(158F)-ECD-C-his. The test can be described thus: SPR; ratio against 1C4-zu1-hIgG1; end of the range assigned by Table 9.
On to B1, for which the “fold higher affinity than the antibody without DD” value lay within 3 to 6 fold.

The target in the next test is T8, hCD32A (167 His, His Tag, Sino …). The test can be described thus: SPR (Biacore 8K), His-tagged Fc receptor captured by anti-His antibody on CM5 chip, antibody flowed as analyte.
For B2, the Kd was determined as 5430 nM. This lies in the single-digit micromolar range.

Molecule B3 had a Kd of 1470 nM.

B4 showed a Kd of 4940 nM. This Kd is about 3.4-fold higher than that of the molecule before.

In the case of B1, the Kd was determined as 1610 nM. Compared with the last molecule, the Kd is about 3.1-fold lower.

The target in another test is T2, hCD32B (ECD, His tag, Sino Biological, …). The test can be described thus: SPR; ratio against 1B5-zu1-hIgG1; end of the range assigned by Table 8.
For the molecule B3, the “fold higher affinity than the antibody without DD” value lay in the range of 6 to 9 fold.

A further test concerns the target T1, hCD16A(158V)-ECD-C-his. Nature of the test: SPR; ratio against 1B5-zu1-hIgG1; end of the range assigned by Table 10.
Regarding B3, the “fold higher affinity than the antibody without DD” value was 3 to 4 fold.

The target in a further test is T8, hCD32A (167 His, His Tag, Sino …). Nature of the test: SPR; ratio against 1B5-zu1-hIgG1; end of the range assigned by Table 7.
In the case of B3, the “fold higher affinity than the antibody without DD” value is 3 to 4 fold.

Another test concerns the target T2, hCD32B (ECD, His tag, Sino Biological, …). The test can be described thus: SPR; ratio against 1C4-zu1-hIgG1; end of the range assigned by Table 8.
With B1, the “fold higher affinity than the antibody without DD” value lay in the range of 6 to 9 fold.
